B1: CD2-associated protein, residues 109 to 169; numbered along this chain, Q9Y5K6 (parent)
chain: KKRQCKVLFEYIPQNEDELELKVGDIIDINEEVEEGWWSGTLNNKLGLFPSNFVKELEVTD

± gives the uncertainty stated by the source.

Variants of B1 are the subject of this data set. The data set is described as follows: abundance fitness (aPCA) (normalised: wild type 0, dead -1); higher = more abundant; growth selection in yeast, the domain comes from the species named. The following applies: Homo sapiens.
For KKRQCKVLFEYIPQNEDELELKVGDIIDINEEVEEGWWSGTLNNKLLLFPSNFVKELEVTD, the abundance fitness is -0.922 ± 0.16.

In the case of KKRQCKVLFEYIPQNEDELELKVGDIIDINEEVEEGWWSGTLNNKLMLFPSNFVKELEVTD, the abundance fitness was -1.21 ± 0.4. On to KKRQCKVLFEYIPQNEDELELKVGDIIDINEEVEEGWWSGTLNNMLGLFPSNFVKELEVTD, for which the abundance fitness was -0.55 ± 0.28. Take KKRQCKVLFEYIPQNEDELELKVGDIIDINEEVEEGWWSGTLNNILGLFPSNFVKELEVTD: the abundance fitness was -0.433 ± 0.29. Consider KKRQCKVLFEYIPQNEDELELKVGDIIDINEEVEEGWWSGTLNNLLGLFPSNFVKELEVTD, for which the abundance fitness is -0.638 ± 0.14. As to KKRQCKVLFEYIPQNEDELELKVGDIIDINEEVEEGWWSGTLNNYLGLFPSNFVKELEVTD, the abundance fitness was -0.273 ± 0.3. The value for KKRQCKVLFEYIPQNEDELELKVGDIIDINEEVEEGWWSGTLNNALGLFPSNFVKELEVTD was -0.779 ± 0.21; that for KKRQCKVLFEYIPQNEDELELKVGDIIDINEEVEEGWWSGTLNNNLGLFPSNFVKELEVTD was -0.183 ± 0.2; that for KKRQCKVLFEYIPQNEDELELKVGDIIDINEEVEEGWWSGTLNNTLGLFPSNFVKELEVTD was -0.458 ± 0.21. As for KKRQCKVLFEYIPQNEDELELKVGDIIDINEEVEEGWWSGTLNNSLGLFPSNFVKELEVTD, the figure is -0.603 ± 0.15; as for KKRQCKVLFEYIPQNEDELELKVGDIIDINEEVEEGWWSGTLNNCLGLFPSNFVKELEVTD, -0.065 ± 0.17; as for KKRQCKVLFEYIPQNEDELELKVGDIIDINEEVEEGWWSGTLNNRLGLFPSNFVKELEVTD, -0.066 ± 0.078. As for KKRQCKVLFEYIPQNEDELELKVGDIIDINEEVEEGWWSGTLNNQLGLFPSNFVKELEVTD, the figure is 0.04 ± 0.26.

Regarding KKRQCKVLFEYIPQNEDELELKVGDIIDINEEVEEGWWSGTLNNELGLFPSNFVKELEVTD, the abundance fitness is -0.453 ± 0.18. Regarding KKRQCKVLFEYIPQNEDELELKVGDIIDINEEVEEGWWSGTLNNVLGLFPSNFVKELEVTD, the abundance fitness is -0.556 ± 0.16. Take KKRQCKVLFEYIPQNEDELELKVGDIIDINEEVEEGWWSGTLNNFLGLFPSNFVKELEVTD: the abundance fitness was -0.695 ± 0.22.

Turning to KKRQCKVLFEYIPQNEDELELKVGDIIDINEEVEEGWWSGTLNNKAGLFPSNFVKELEVTD, the abundance fitness worked out at 0.031 ± 0.069. The value for KKRQCKVLFEYIPQNEDELELKVGDIIDINEEVEEGWWSGTLNNKKGLFPSNFVKELEVTD was 0.069 ± 0.099. The value for KKRQCKVLFEYIPQNEDELELKVGDIIDINEEVEEGWWSGTLNNKHGLFPSNFVKELEVTD was 0.035 ± 0.051; that for KKRQCKVLFEYIPQNEDELELKVGDIIDINEEVEEGWWSGTLNNKDGLFPSNFVKELEVTD was 0.034 ± 0.082. As for KKRQCKVLFEYIPQNEDELELKVGDIIDINEEVEEGWWSGTLNNKWGLFPSNFVKELEVTD, the figure is 0.013 ± 0.079; as for KKRQCKVLFEYIPQNEDELELKVGDIIDINEEVEEGWWSGTLNNKCGLFPSNFVKELEVTD, 0.127 ± 0.058. For KKRQCKVLFEYIPQNEDELELKVGDIIDINEEVEEGWWSGTLNNKNGLFPSNFVKELEVTD, the abundance fitness worked out at 0.074 ± 0.056.

As for KKRQCKVLFEYIPQNEDELELKVGDIIDINEEVEEGWWSGTLNNKQGLFPSNFVKELEVTD, the abundance fitness is 0.022 ± 0.099. On to KKRQCKVLFEYIPQNEDELELKVGDIIDINEEVEEGWWSGTLNNKIGLFPSNFVKELEVTD, for which the abundance fitness was found to be 0.169 ± 0.049. As for KKRQCKVLFEYIPQNEDELELKVGDIIDINEEVEEGWWSGTLNNKEGLFPSNFVKELEVTD, the figure is 0.138 ± 0.11.

On to KKRQCKVLFEYIPQNEDELELKVGDIIDINEEVEEGWWSGTLNNKYGLFPSNFVKELEVTD, for which the abundance fitness is 0.011 ± 0.049. The value for KKRQCKVLFEYIPQNEDELELKVGDIIDINEEVEEGWWSGTLNNKGGLFPSNFVKELEVTD was -0.303 ± 0.076. As for KKRQCKVLFEYIPQNEDELELKVGDIIDINEEVEEGWWSGTLNNKPGLFPSNFVKELEVTD, the figure is -0.196 ± 0.074; as for KKRQCKVLFEYIPQNEDELELKVGDIIDINEEVEEGWWSGTLNNKSGLFPSNFVKELEVTD, 0.113 ± 0.044; as for KKRQCKVLFEYIPQNEDELELKVGDIIDINEEVEEGWWSGTLNNKTGLFPSNFVKELEVTD, 0.151 ± 0.055.

With KKRQCKVLFEYIPQNEDELELKVGDIIDINEEVEEGWWSGTLNNKMGLFPSNFVKELEVTD, the abundance fitness was determined as 0.006 ± 0.1. As for KKRQCKVLFEYIPQNEDELELKVGDIIDINEEVEEGWWSGTLNNKFGLFPSNFVKELEVTD, the figure is 0.092 ± 0.046; as for KKRQCKVLFEYIPQNEDELELKVGDIIDINEEVEEGWWSGTLNNKVGLFPSNFVKELEVTD, 0.047 ± 0.071; as for KKRQCKVLFEYIPQNEDELELKVGDIIDINEEVEEGWWSGTLNPKLGLFPSNFVKELEVTD, -0.356 ± 0.37.

Turning to KKRQCKVLFEYIPQNEDELELKVGDIIDINEEVEEGWWSGTLNQKLGLFPSNFVKELEVTD, the abundance fitness was -0.183 ± 0.24. Take KKRQCKVLFEYIPQNEDELELKVGDIIDINEEVEEGWWSGTLNYKLGLFPSNFVKELEVTD: the abundance fitness is -0.483 ± 0.33.

Consider KKRQCKVLFEYIPQNEDELELKVGDIIDINEEVEEGWWSGTLNLKLGLFPSNFVKELEVTD, for which the abundance fitness is -0.489 ± 0.14.

KKRQCKVLFEYIPQNEDELELKVGDIIDINEEVEEGWWSGTLNSKLGLFPSNFVKELEVTD: the abundance fitness was -0.261 ± 0.18. For KKRQCKVLFEYIPQNEDELELKVGDIIDINEEVEEGWWSGTLNRKLGLFPSNFVKELEVTD, the abundance fitness was -0.273 ± 0.16.

Take KKRQCKVLFEYIPQNEDELELKVGDIIDINEEVEEGWWSGTLNKKLGLFPSNFVKELEVTD: the abundance fitness was 0.019 ± 0.24. In the case of KKRQCKVLFEYIPQNEDELELKVGDIIDINEEVEEGWWSGTLNAKLGLFPSNFVKELEVTD, the abundance fitness was -0.048 ± 0.14. The value for KKRQCKVLFEYIPQNEDELELKVGDIIDINEEVEEGWWSGTLNMKLGLFPSNFVKELEVTD was -0.318 ± 0.16; that for KKRQCKVLFEYIPQNEDELELKVGDIIDINEEVEEGWWSGTLNVKLGLFPSNFVKELEVTD was -0.795 ± 0.25.

The values above are taken from the Human Domainome abundance scans (Beltran et al. 2025).
